Assay results reported in patent US20220356223A1.

Target: human high-affinity IL2 receptor (IL2Rαβγ) (human) (UniProt P01589)
Assay: cell-based or functional assay

Chain of UniProt P01589 (P01589 22-272, chain 1 of 3): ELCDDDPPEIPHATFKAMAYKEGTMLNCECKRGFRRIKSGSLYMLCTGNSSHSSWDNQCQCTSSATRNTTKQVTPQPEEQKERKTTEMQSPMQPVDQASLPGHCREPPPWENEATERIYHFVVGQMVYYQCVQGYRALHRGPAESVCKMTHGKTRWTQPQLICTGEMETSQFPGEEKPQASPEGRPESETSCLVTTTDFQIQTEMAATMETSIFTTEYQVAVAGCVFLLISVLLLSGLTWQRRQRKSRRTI
Chain of UniProt P01589 (P14784 27-551, chain 2 of 3, further chain): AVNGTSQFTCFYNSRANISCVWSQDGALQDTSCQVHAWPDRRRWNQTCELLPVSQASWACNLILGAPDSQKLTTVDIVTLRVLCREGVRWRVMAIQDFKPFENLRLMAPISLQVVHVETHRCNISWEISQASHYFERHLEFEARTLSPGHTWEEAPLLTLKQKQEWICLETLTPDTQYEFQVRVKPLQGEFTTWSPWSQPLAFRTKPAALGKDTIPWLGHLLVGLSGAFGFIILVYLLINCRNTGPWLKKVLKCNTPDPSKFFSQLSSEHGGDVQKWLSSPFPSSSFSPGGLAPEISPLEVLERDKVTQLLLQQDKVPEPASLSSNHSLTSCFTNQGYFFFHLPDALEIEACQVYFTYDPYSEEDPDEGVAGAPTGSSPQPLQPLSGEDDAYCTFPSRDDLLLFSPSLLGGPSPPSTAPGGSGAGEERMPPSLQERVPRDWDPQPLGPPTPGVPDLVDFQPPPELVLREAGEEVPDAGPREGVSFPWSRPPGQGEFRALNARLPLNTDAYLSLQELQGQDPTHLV
Chain of UniProt P01589 (P31785 23-369, chain 3 of 3, further chain): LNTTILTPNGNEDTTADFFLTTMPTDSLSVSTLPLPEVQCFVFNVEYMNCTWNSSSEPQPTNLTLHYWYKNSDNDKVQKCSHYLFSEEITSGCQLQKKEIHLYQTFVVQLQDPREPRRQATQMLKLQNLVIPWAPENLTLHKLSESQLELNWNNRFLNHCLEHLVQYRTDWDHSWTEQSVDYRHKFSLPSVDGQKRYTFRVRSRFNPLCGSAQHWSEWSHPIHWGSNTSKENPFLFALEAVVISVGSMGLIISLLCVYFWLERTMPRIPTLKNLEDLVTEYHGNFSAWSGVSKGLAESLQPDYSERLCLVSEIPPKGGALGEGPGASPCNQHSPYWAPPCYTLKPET

hAlb-hIL2 (ligand)
EC50, STAT5 phosphorylation, human CD4+CD25+ Treg cells (%-supernatant): 0.0311
